We go through 47 sequences from the NTF2 design screens of Basanta et al. (2020).

This data set can be described thus: protease stability score; higher = more stable; yeast display proteolysis, trypsin and chymotrypsin.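 Further: relative to predicted unfolded state with 0 unfolded-like and 1 meaning tenfold more protease.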
In turn, “TEHEEISHRLMELLKEALQTGDEEHIRDLADPHVRVIVNGKNIHGREEVHMWLLILNTKFKGLTLRVHHVDIQGEKIILDTRIHVNGRSTTSHVELYVVDGVLKRAHLHIE” came in with a protease stability score of 1.45. In the case of “TEHEEMIREALEFLIRLLETGDFERLHHLADPNVRLEQGDKEFIGREEWLRLFTEEIRQYKGITIHIHEVEVVDGRVYINGTVHQGDKIRRVIWVIIKIDGKWRIHSVHIR”, the protease stability score amounted to 2.19. With “TEHEHEAEDALEKSIRHFHTGDEDTLKHLMDPNVRNDIDGKHIHGREDVLDIMIRIPNVRSEIDDVRVRHVNGRIEVIVDGILYFNGRTVEVRVILIMQKINGKWYITSLEIRRR” the figure was 0.628; with “TEHEKFKEEWVRMFLRDWLTGNENTLRHLADPDTLLEINGRIFHGMHTISRWTEEHLRRIDHLRLEMHTVDVIGDFAHVHGTLKLHVGDKEHHVTFHINLFTINGRIKSIIVKEE”, 1.43; with “TEHHERHIKLMRKIIEALLTGDEEILRKLMDPDVRWEQGDKTVIGMEAVIKFLKDVSRHIRIKDIKIERQTDINGRMFTEGHLHIQYGDKEDTQEVHIELDVINGRIKSFHVEYR”, 1.65. With “TEHRHLIEQHLRDLQHDMRTGDEDNLHKLADPHVRVDIDGRQLHGREAWSKTMFELRTDIRVDRFDVQGNKIHIEGHLIEHFDGRTINMRVHIIWFKVDGRWLIHEVRIE” the figure was 1.22. The sequence “TEIEEHIREVSEILTDWIITGNEEMIEKLLDPHARVVIGDKEHHGREVVIRFLRHWRLHRFDHRSFILQGEKAILIGDMDGDINGQRINLHVEEIHIIVDGRLKILEVKYK” had a protease stability score of 2.7. For “TEIEKLLDEIVKHFLWAFLTGDWDKVAKLADPNTKSVWNGVDLVGMHLNEHVLEMLIRRYDVIHSIHLRSYRTQGDKLHVDSELNMIQGDKEETVRVRITLHVVNGRLKSIEVRIE”, the protease stability score is -0.002. Then “TEIKHHVKEMADLFLENLLTGNEDILKKLMDPNALLVVGNKHIHGWEEMIKQWKDVRRHMRIEHVETEDIELQGDKAHIHVNIFGQINGKRKESHVRIHFEVFDGVLRRVEIDER”, with 1.18. With “TEKEEIVEETMKQLLHAEETGDWRTIEHLLDPNTRIIVEFNGVEIVLHGREEAVKFMFDFARHWRIKDFKVESIDIQGNKVHMRIRVDMEFNGKHIRTETNIHTVVVDGRIKSHERRVE” the figure was 1.63; with “TEKEELYRKIYELLENLLFTGDEHAWRNNMDPHVKILLNIDGKIHDLHGWHAWHLVLRLLGIDHMEFKDFHVQGDKFHLELTVDFDGREHIMRVDIIVVNGKITSVRVSIE”, 1.37; with “TELDELALKLLEQLIELEATGDWKTLLKLFDPNTRVDIEVGDKKIRLHGREDVIEWVKTVYEHLRFEIRIHSSDAIDGRVHVSTKLIIRIDGRTIEVETHLRVIMIDGKIHEVNTHVH”, 1.43. For “TELDEQVTEVFKINERLKQTGDWKKIIDYVDPHARVEIGEFRDHGRDAAEFTMKYLGIDHFELKRVHLQGNKLHIHGELTVDGRLIHLIIISEKVDGRWITKSMTVD”, the protease stability score was found to be 0.01. Then “TELDKHLEDFAREFLHAFLTGDEDELRRLLDPNVKFEHDFDGVRFENHGMSALKEFWERVDVIDRFEIHEVRTQGDFIELVFHIDGWVNGRHKRTDSRILLVVINGKIKTIHVKIK”, with 2.15. With “TELDKHVEDLLHRFIEALHTGNWEQLEHLVDPDARFDVDGRIHHGREWLLTHMTRIKNARIEFHHIEIYGDYISMRVIIHVNGQTRDFHLELITFNGRIKEVRIWHI” the figure was 2.34; with “TELEDELRKMFESWRHNSRTGNEHAEDNNMDPNVKLLIDGRTVVGMEFYRKWVHEARIEDSHVDHHTVIDGRAHVHMTLNSNYNGVHRRLEIELVSEKIDGKWRLKSIIIR”, 1.51. Then “TELEDLVKRLWHIWLHAVLTGDEDLLTKLIDPHARLEIHIGDKEFIHIGREEFVRFMREYHRHLRVERVDERSMEVIGNKSHSDVRTVIHIDGRTIDTRMHIDLIVVNGRVKSLEIHVH”, with 2.26; and “TELEEDIVRAWERFVRSLETGNERSIRELMDPNPRIVIGDYEFHGREAIEELLRRIDVIKSVELRHFRLQGEKARLDTTETGHIDGRDVTYETRIISLKVNGVWVLKRIEVR”, with 1.53; and “TELEEEAKKYQDFFVTIVVTGDEDSFINLFDPNVRSVVNGRKLHGMHKWKRYIEELLRKIKNLRFELTIHEVNVIDGKVESHMELILRINGVEQRHDLNVHAEKFDGRWLYREIEIR”, with 1.46. For “TELEEEVERLMEIFHKAFETGDEHELKRLADPHVRLDFNGRDIHGMDFIIREWLKIKNMRFRIHLDHVELQGEKVHIDGKVEEDFDGVHRHHRVILIWEKYDGRWHHKRMHVK”, the protease stability score was 1.43. With “TELEEIFRLALEYLDKIWKTGDEHTLKRMFDPTTLLVVDGKRQHGMEFWREFLERYDHFHHLEVDDYHDVNGVLRLHGVIDGTVNGRRHEIHVHIVASKVNGKWRLKSVIFH” the figure was 1.5. In the case of “TELEELMIKIIRLILRSHNTGDEDEQRKLLDPHVRWHIGDKEIHGRDLIIEHLKEVYERIDHIEFRENHVDIQGEKLHLDGRLIFIQGDKNIEFRVHYHFLIIDGVVDLIEVQIR”, the protease stability score came out at 1.5. With “TELEESAKRAVKHVVDLILTGDWELFEEMFDPHTRILVGDKHMHGREMASEHLRFWYEHLGVKHIEIRRIDVQGDKVVSDVETDIDGRHIRVNLVIHKVDGKWIIHSIHLD” the figure was 1.59; with “TELEHDVIHAFNLIVWAIRTGDEKTYHRLVDPRVQIDIGDKHLHGREDFTRLLREIRVTVRDWDFEHVRFQGDYAILHSRLDIEINIDGRIERIDVHQILFVEKINGRWRHTRESRH”, 0.366. Then “TELEHKAIEVVEAVFRNLHTGDESLLQELFDPNTKSLIDGVSVVGMHEIYKTIKHLRIEFESIEVHHITNVNGVLLLDVTLRERYRINGVEDEKQTRVHIIVRKIDGRWHLEHVRFH”, with 1.48; and “TELEKDAKEFFRIVIEAWLTGDEQKIEHLADPHVRLDINGVELHGWEELIRRLHDELHRYDYMQINVRRVEIQGEKIHVDGELELRFDGKIYRHEVEINILVVNGKNKEQKFVKK”, with 0.243; and “TELEKDVVEVLHFLTHAHKTGDEDAINRLLDPHTRIDIDGQEFIGREDALRLWHELRTTHMRIDDRRIQGDKIQVDGQVNYLVNGREEERDVTIHMVKFDGVWVLREIKID”, with 2.07. Then “TELEKLLKEMSDIIHHAWRTGDEHLVRNLADPNVRFHTQIDGRNDERWGREEMEKALHDWLRHFGVKHIIDKSIELQGDKITIKGHVDVDGVKIDVRIFLIVVNGKLKTMKIEHD”, with 1.19. For the sequence “TELEREVETFLEMWITAIHTGDWTTLIELIDPHARLDYDGREIHGMEYYVEEFIKRLQEHGARVDIKIDRIDFQGDKVRVIGQLEVIIGEKREVKDVIIYIEKVDGKWRLHHEEIV”, the protease stability score is 1.37. As to “TELETELEHMVKIVIDSLLTGDEKKLHKQADPHVRHSQGEFEWHTREAMIRFFFELGIDHMTLTEIHLQGDFVEMHIENNINGRRVELRIHWHKFNGKWINRRTHVRHI”, the protease stability score worked out at 0.698.

The sequence “TELREIFIHFAEMILENIQTGDEDTLDELADPNTRIDINGVTMHGREKISRHWKEHLDRYDHFRIEIKRIRSQGDFAENDVTLVIIYNGQRIRIRMEVEIIFVDGRIHSINERRE” registered a protease stability score of 0.225. Then “TEMEEEIRDSIELLDRAINTGDEEKLRRLFDPNTRREVGDKQHHGRELLIRQIVELGAEHHIHVDHWRLQGDKAVIDGTLNYEFNGREYRTRTTLHLVKINGRWLMHSIHLH”, with 1.08; and “TEMEEWSRLAIEIWEEVVRTGNEHDMARLLDPNTRLIVGEKEYHGMETVMHLLERIKNLVLRRFHIEHVRLQGDKVEIDARSVHHVNGRDIETTLKIISFKFNGRWTIRQESII”, with 0.614. Then “TEMEKRAEHWARLMVDRLKTGDEEVLRKMMDPNTRLEIDGREFIGREEILKSWEELGIKHIIFRHIDIEIVDGVVHVHLDLHVRIGEKDTKIELRVTNEKINGRWVIRSIHIHDI”, with 1.69; and “TEMLEEALRFVEQLIKAILTGDESVFRNLVDPNAKNEIDGVEIHGWEFLNVFHKRYDHVTHLHFVLRSVRVYGDKLEMHGVVEIHGVIDGQERNFEVDTEIHVEKINGQWILRSLYVR”, with 1.11. With “TEMNDEARRAMKDFIEHLRTGDEDRLDKMLDPHVRMEINGRTFHGREDAIKWHREIRLEDITVKFSTIQGDKVRFFGEEDGIIDGQRHKTEVELIIRKVNGRWFIHEIQVH”, the protease stability score is 1.27.

Take “TENKRDLDLLIKLHLYLHKTGDWERLFKLMDPHARLEVGDFHIHGREEVIRWFVELMERVKNMRFDLQDRKVEVQGEKVIVRSDVEVNIDGVVIRVYLEVDSIKVDGKWHLHSERIELR”: the protease stability score was determined as 1.29. Take “TEQDEIAERVAREIMTMLLTGDWQRLRELADPHVRTIIDGVHVHGWDRMIEVLEVLHREIRIHDIREHSIKVYNGRVEIITHNDGEIDGQRVESSERHDIIIVNGRIKTIRLDIR”: the protease stability score was 1.34. With “TEQEHDMERLIEILIHSWRTGNEDELRRQIDPNARIDIGDKHFHGREFAIKHLSELRIKDFKLQHLDVQGDKVNVEGHLEGEINGRDDRYRYWIFVSKVNGQWFVERFHIV” the figure was 1.5; with “TEQMEWVEDIVRILVESINTGDEHVLKEMLDPNVRIHIGDKNVIGMEFIHRWLKEIRIEHLRVEISDVRFIGDKVKVRGRLKLHVDVDGRRHDVSHDVIIVFEKVDGKWFEREDRLL”, 1.23; with “TERDEHIEEMTDEWIELLFTGDEESLKRLADPDMRVNFNGVEIHGMHNFMRWVLHVLEHWRIEVKIHHKEVQGDKIRVELKQNIHFNGRDIHRDNREHIFVVNGVNKHVILIYR”, 1.43. With “TERDEHSRKMAHALVENFRTGDFETLHDLFDPRYLVILYIDGVDIRLHGREDFLRELKLINDRLGVDRVNLSVKHMEIQGDKVIMHFEEHQGDKTRRSEIRLEIINGRLRTSEWWIH” the figure was 0.788; with “TERDELMKRFAHIFYHWLETGDEESIKKMLDPDTLSIVDGVNLHGRDEHSRWHVELHENLGIDQIHYRLRRVEVQGDKARIDGEEEINGKHVKLRIELEVINGRIKDIRVSVR”, 1.45. The sequence “TERDMFIETYIQIFIEHVRTGDEEALARLADPNVRIRVGDKHLHGWHELRRFFHEWRVKDLDFRDYRYYDGRVEIRGFERVEFNGQERDMEVIFHFVKINGRWYLEETEIR” had a protease stability score of 2.32. With “TEREEDVKTAMDHLYEIIETGDWKEIHKLIDPNAKVHIDGRNLIGRELMTKIIEEMSEKYKNLRLELTHFEVQGNKVISHTNNRFDGREVRTLMILTKIDGRWIIHSINLE” the figure was 1.11. For “TEREEENRIARQLFEHDWETGDEDSIHRLADPHALLTDENEKLHGREDVTDWIIKVSRKYKNLQFRVTDQELQGNKLIIYSTSKYNGRTFHLIFFVLKVDGRWHFHHMRIE”, the protease stability score was found to be 1.36. Then “TEREEEVHHVQRLEWEALRTGNEEYLLRLIDPEVRIRQGDKTLIGREALNLHLKKVKNLQFRDIKLRDFDVQGEKIHLHTELIGEVDGRELKIDIDIHVKKINGRWVIDSFHIN”, with 1.32.
